Molecular target: Leishmania major N5,N10-methylenetetrahydrofolate dehydrogenase/cyclohydrolase (Leishmania major (Friedlin strain))
Assay: SEC; Superdex 200 26/60 in buffer A (50 mM Tris-HCl, 250 mM NaCl, 20 mM imidazole, pH 7.5); main peak at approximately 65 kDa (subunit 31.9 kDa)

stoichiometry N: 2
Substance: Leishmania major N5,N10-methylenetetrahydrofolate dehydrogenase/cyclohydrolase (enzyme)
